Patent publication US11530240B2, “Catheter injectable cyclic peptide pro-gelators for myocardial tissue engineering” (The Regents of the University of California, priority 2017, dated 2022)
Bridges are numbered along the chain shown (N, C = ends). Where no end group is shown, it is not given here. rhodamine = 5(6)-carboxytetramethylrhodamine label attached at the N-terminus

Experiments:
[1] = Viscoelastic measurements of functionalized SAP hydrogels (gel capacity); assay type: physicochemical; conditions: 15 mg/mL in 1×DPBS, 2.5 rad/s
Description: (§1) Rheological characterization. All peptide samples were prepared at 10 mM peptide, except for those used to assess the effect of SAP functionalization with respect to weight (15 mg/mL). Viscous and viscoelastic properties were assessed using a stress-controlled rheometer (TA Instruments AR-02) equipped with a Peltier plate to control temperature and a 20 mm diameter parallel plate geometry. Unless otherwise stated all measurements were taken at an angular frequency of 2.5 rad s^−1, strain of 0.5%, and temperature of 37° C. Measurements were performed with a gap height of 1000 μm and repeated three times (except for step-strain tests) to ensure reproducibility. To prevent water evaporation, mineral oil was wrapped around the edge of the geometry at the air-sample interface. For viscoelastic measurements the apparatus was used in oscillatory mode. […] The dynamic moduli of the hydrogels were measured as a function of frequency in the range 0_25-100 rad s^−1 at a strain of 0.5%. Continuous step-strain oscillations were used to monitor hydrogel healing through disruption (3 min, 100% strain) and recovery (15 min. 0.5% strain) cycles (n=3). Temperature sweeps were measured by increasing the apparatus temperatures from 21-40° C. at a ramp rate of 0.5° C./min. […] The viscosity of the samples was measured as a function of shear rate in the range 0.1-10 s^−1 (5% tolerance.

[2] = target: T1, Thermolysin (Bacillus thermoproteolyticus, UniProt P00800); assay: Time course rheological analysis of bulk gelation after thermolysin addition; assay type: physicochemical; design: purchased Promega V400A; conditions: 10 mM in 1×DPBS, thermolysin 1:4500 added at t=40 min, 37° C.
T1 sequence (P00800 233-548): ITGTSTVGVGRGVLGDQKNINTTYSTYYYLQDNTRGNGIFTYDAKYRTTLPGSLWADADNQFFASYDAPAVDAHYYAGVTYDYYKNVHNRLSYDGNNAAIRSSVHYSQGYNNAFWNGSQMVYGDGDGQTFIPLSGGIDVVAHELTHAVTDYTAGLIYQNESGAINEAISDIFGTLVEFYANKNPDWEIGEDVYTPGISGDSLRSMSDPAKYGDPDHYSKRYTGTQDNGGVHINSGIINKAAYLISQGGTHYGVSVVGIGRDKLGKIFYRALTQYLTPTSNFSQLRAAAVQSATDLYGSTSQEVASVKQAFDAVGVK
Description: as §1

[3] = tested on: whole human blood; assay: Activated clotting times (ACT) with whole human blood; conditions: positive control, collagen 0.095 mg/mL
Description: (§2) Hemocompatibility analysis.
Activated clotting times (ACT) with whole human blood. A Hemochron 801 instrument calibrated with an electronic system verification (ESV) device was used to measure activated clotting time (ACT) of whole human blood. Activated clotting times (ACT) were determined using recalcified citrated whole human blood to minimize variability in starting time points for clotting in all assays.^71 To each Hemochron P214 tube with glass beads was added 4 μL CaCl2 (1.1 M) and 36 μL peptide stock or additive (12.2× final blood concentration). Samples were mixed thoroughly for 30 s to soak the glass beads and incubated 30 s at 37° C. Citrated whole human blood (400 μL) was then added (t=0 s), mixed by hand for 10 s, and added to the instrument. Time points at which the magnet was displaced by clot formation were recorded by the instrument. Collagen (0.095 mg/mL) was used as a positive control to […] clotting time. Vehicle (1×DPBS) served as a standard for blood without additive. Samples without calcium, serving as the negative control, exceeded instrument maximum time range (>1500 sec). Each experiment was performed n=6 times with averages and standard error of the mean (SEM) plotted.

[4] = tested on: whole human blood; assay: Whole blood hemostasis kinetics (non-activated whole blood clotting assay); conditions: positive controls; recalcified whole human blood
Description: as §2
Whole blood hemostasis kinetics. Changes to time-dependent hemostasis were monitored using a non-activated whole blood clotting assay.^72 Briefly, 100 μL of citrated whole human was mixed with 10 μL of peptide or collagen stock (11.5× final blood concentration) and 5 μL of CaCl2 (230 mM). Collagen (0.095 mg/mL) and glass coverslips were used as positive controls to increase clotting rates from an additive and contact initiated perspective, respectively. […] Aliquots (100 μL) were transferred to a 12-well TCP, covered, and incubated at r.t. for 5 min, 15 min, 30 min, and 45 min. Each sample was prepared in triplicate. At the end of each time point, RBCs not caught in the thrombus were lysed by gently adding 3 mL distilled H2O and incubating for 5 min. Each well was sampled (200 μL), taking care not to disturb the clot, and transferred to a 96 well plate for analysis. Released hemoglobin from lysis was detected by measuring the absorbance at 405 nm (height 4.0 mm, 100 flashes) using a plate reader. Extent of clotting is inversely proportional to measured absorbance. Averages (n=3) and standard error of the mean (SEM) are plotted.

[5] = target: T1, Thermolysin; conditions: 1:4500 enzyme/substrate
Description: General information. […] Thermolysin (V400A) was acquired from Promega, as a lyophilized powder.
In vitro enzyme cleavage of cyclic peptide progelator. Unless otherwise stated, enzyme cleavage experiments were performed on progelator at a final concentration of 500 μM in 1× enzyme cleavage buffers. […] Thermolysin cleavages were performed at 1:4500 enzyme/substrate molar ratio in 1× buffer (1×DPBS, pH 7.4) for 15 min. […] Control samples utilized denatured enzymes under the same conditions. […] Thermolysin was inactivated by incubation with 10% (v/v) EDTA (0.5 M, pH 8.0)

[6] = target: T2, MMP-9 (recombinant human catalytic domain) (Homo sapiens, UniProt P14780); assay: In vitro enzyme cleavage of cyclic progelator by MMP-9; assay type: biochemical; conditions: 1:1000 enzyme/substrate, 5 hr; denatured enzyme elicited no response
T2 construct: MMP-9 (recombinant human catalytic domain); purchased Enzo Life Sciences BML-SEro360
T2 sequence (P14780 107-444 limits assumed): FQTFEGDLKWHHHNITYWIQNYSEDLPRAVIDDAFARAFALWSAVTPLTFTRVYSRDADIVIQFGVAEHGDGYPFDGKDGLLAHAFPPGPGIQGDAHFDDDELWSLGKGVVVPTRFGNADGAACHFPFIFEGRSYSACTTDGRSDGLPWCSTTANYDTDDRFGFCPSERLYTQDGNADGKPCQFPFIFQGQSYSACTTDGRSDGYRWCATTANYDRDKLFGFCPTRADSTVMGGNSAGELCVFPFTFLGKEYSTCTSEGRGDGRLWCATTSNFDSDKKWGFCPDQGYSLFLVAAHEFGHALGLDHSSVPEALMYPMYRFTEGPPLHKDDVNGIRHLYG
Description: (§3) Transmission electron microscopy (TEM).
(§4) In vitro enzyme cleavage of cyclic peptide progelator. […] Control samples utilized denatured enzymes under the same conditions.

[7] = target: T3, Porcine pancreatic elastase (Sus scrofa, UniProt P00772); assay: In vitro enzyme cleavage of cyclic progelator by elastase; assay type: biochemical; conditions: 1:250 enzyme/substrate, 5 hr; denatured enzyme elicited no response
T3 construct: purchased EMD Millipore 3246821000U
T3 sequence (P00772 27-266): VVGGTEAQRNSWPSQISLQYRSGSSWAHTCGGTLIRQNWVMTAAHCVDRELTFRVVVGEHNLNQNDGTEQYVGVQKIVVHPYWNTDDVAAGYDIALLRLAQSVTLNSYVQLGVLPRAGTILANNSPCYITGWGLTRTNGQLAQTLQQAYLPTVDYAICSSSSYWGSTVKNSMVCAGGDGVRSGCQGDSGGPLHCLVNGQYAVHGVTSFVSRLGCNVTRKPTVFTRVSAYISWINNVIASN
Description: as §3, §4

[8] = tested on: red blood cells (RBCs); assay: Hemolysis of red blood cells (RBCs); assay type: cell-based, human; conditions: positive (normalization) control 1% Triton X-100; isolated RBCs, 1 hr incubation; n=4
Description: as §2
Hemolysis assay. Acute toxicity of cyclic peptide progelator was measured with a RBC hemolysis assay specific to biomacromolecular drug analysis, as previously described.^73 Averages (n=4) and standard error of the mean (SEM) for absorbance measurements (at 540 nm) were plotted.

C(KLDL)3PLGLAGC (SEQ ID NO: 6) (CKLDLKLDLKLDLPLGLAGC) [KLDL (SEQ ID NO:5)Linear, modified linear SAP primed for cyclization, no fluorescent label]
gelling capacity (tanδ<1) and strain tolerance vs unmodified SAP [1]: no significant disruptive effects to gelling capacity

C(KFDF)3PLGLAGC (SEQ ID NO: 7) (CKFDFKFDFKFDFPLGLAGC) [KFDF (SEQ ID NO:1)Linear, modified linear SAP primed for cyclization, no fluorescent label]
gelling capacity (tanδ<1) and strain tolerance vs unmodified SAP [1]: no significant disruptive effects to gelling capacity

CKLDLKLDLKLDLPLGLAGC (SEQ ID NO:6) (disulfide 1-20) [KLDL (SEQ ID NO:5)Cyclic, unlabeled cyclized enzyme-responsive progelator]
time at which steady state of shear moduli (G′, G″) was reached [2]: 200 min

collagen [reference compound]
effect on clot time vs vehicle (ACT) [3]: significant clot time reduction | Activated clotting time (ACT), Average Time ([3]; whole human blood, n=6): 150 s | clot rate (hemostasis kinetics) [4]: increased the clot rate

Rho-KLDL (SEQ ID NO:5)Cyclic: rhodamine labeled cyclized KLDL progelator (SEQ ID NO:6) (rhodamine-CKLDLKLDLKLDLPLGLAGC; disulfide 1-20)
response to thermolysin incubation (TEM) [5]: induced fiber formation by TEM | response to active MMP-9 cleavage (visual, TEM) [6]: induced visible aggregation in the reaction vial and entangled fibrous meshes by TEM | response to active elastase cleavage (visual, TEM) [7]: induced visible aggregation in the reaction vial and entangled fibrous meshes by TEM

Triton X-100 [1% Triton X-100]
% Hemolysis [8]: 100.00%

Rho-KFDF (SEQ ID NO:1)Cyclic: rhodamine labeled cyclized KFDF progelator (SEQ ID NO:7) (rhodamine-CKFDFKFDFKFDFPLGLAGC; disulfide 1-20)
response to thermolysin incubation (TEM) [5]: induced fiber formation by TEM | response to active MMP-9 cleavage (visual, TEM) [6]: induced visible aggregation in the reaction vial and entangled fibrous meshes by TEM | response to active elastase cleavage (visual, TEM) [7]: induced visible aggregation in the reaction vial and entangled fibrous meshes by TEM
